Results: ChEMBL document CHEMBL3526024, “Oral availability of cefadroxil depends on ABCC3 and ABCC4” (Drug Metab Dispos, 2012)

Columns and labels:
[1] = substrate: CC1=C(C(=O)O)N2C(=O)[C@@H](NC(=O)[C@H](N)c3ccc(O)cc3)[C@H]2SC1; test: Activity of recombinant human ABCC3 expressed in baculovirus infected insect Sf21 cell plasma membrane vesicles assessed as transporter-mediated drug uptake by liquid scintillation counting analysis in presence of ATP; format: ADME
[2] = substrate: CO/N=C(\C(=O)N[C@@H]1C(=O)N2C(C(=O)O)=CCS[C@H]12)c1csc(N)n1; test: (§1) Activity of recombinant human MRP4 expressed in adenovirus infected HEK293 cell plasma membrane vesicles assessed as transporter-mediated drug uptake after 2 mins by Michaelis-Menten plot analysis in presence of ATP; format: ADME, cell-based
[3] = substrate: Cc1nnc(SCC2=C(C(=O)O)N3C(=O)[C@@H](NC(=O)Cn4cnnn4)[C@H]3SC2)s1; test: as §1; format: ADME, cell-based
[4] = substrate: CC1=C(C(=O)O)N2C(=O)[C@@H](NC(=O)[C@H](N)c3ccc(O)cc3)[C@H]2SC1; test: Activity of recombinant human ABCC4 expressed in baculovirus infected insect Sf21 cell plasma membrane vesicles assessed as transporter-mediated drug uptake by liquid scintillation counting analysis in presence of ATP; format: ADME
[5] = substrate: CC1=C(C(=O)O)N2C(=O)[C@@H](NC(=O)[C@H](N)c3ccc(O)cc3)[C@H]2SC1; test: Activity of recombinant human ABCC1 expressed in baculovirus infected insect Sf21 cell plasma membrane vesicles assessed as transporter-mediated drug uptake by liquid scintillation counting analysis in presence of ATP; format: ADME

B1: ATP-binding cassette sub-family C member 3 (Homo sapiens) (protein)
chain: MDALCGSGELGSKFWDSNLSVHTENPDLTPCFQNSLLAWVPCIYLWVALPCYLLYLRHHCRGYIILSHLSKLKMVLGVLLWCVSWADLFYSFHGLVHGRAPAPVFFVTPLVVGVTMLLATLLIQYERLQGVQSSGVLIIFWFLCVVCAIVPFRSKILLAKAEGEISDPFRFTTFYIHFALVLSALILACFREKPPFFSAKNVDPNPYPETSAGFLSRLFFWWFTKMAIYGYRHPLEEKDLWSLKEEDRSQMVVQQLLEAWRKQEKQTARHKASAAPGKNASGEDEVLLGARPRPRKPSFLKALLATFGSSFLISACFKLIQDLLSFINPQLLSILIRFISNPMAPSWWGFLVAGLMFLCSMMQSLILQHYYHYIFVTGVKFRTGIMGVIYRKALVITNSVKRASTVGEIVNLMSVDAQRFMDLAPFLNLLWSAPLQIILAIYFLWQNLGPSVLAGVAFMVLLIPLNGAVAVKMRAFQVKQMKLKDSRIKLMSEILNGIKVLKLYAWEPSFLKQVEGIRQGELQLLRTAAYLHTTTTFTWMCSPFLVTLITLWVYVYVDPNNVLDAEKAFVSVSLFNILRLPLNMLPQLISNLTQASVSLKRIQQFLSQEELDPQSVERKTISPGYAITIHSGTFTWAQDLPPTLHSLDIQVPKGALVAVVGPVGCGKSSLVSALLGEMEKLEGKVHMKGSVAYVPQQAWIQNCTLQENVLFGKALNPKRYQQTLEACALLADLEMLPGGDQTEIGEKGINLSGGQRQRVSLARAVYSDADIFLLDDPLSAVDSHVAKHIFDHVIGPEGVLAGKTRVLVTHGISFLPQTDFIIVLADGQVSEMGPYPALLQRNGSFANFLCNYAPDEDQGHLEDSWTALEGAEDKEALLIEDTLSNHTDLTDNDPVTYVVQKQFMRQLSALSSDGEGQGRPVPRRHLGPSEKVQVTEAKADGALTQEEKAAIGTVELSVFWDYAKAVGLCTTLAICLLYVGQSAAAIGANVWLSAWTNDAMADSRQNNTSLRLGVYAALGILQGFLVMLAAMAMAAGGIQAARVLHQALLHNKIRSPQSFFDTTPSGRILNCFSKDIYVVDEVLAPVILMLLNSFFNAISTLVVIMASTPLFTVVILPLAVLYTLVQRFYAATSRQLKRLESVSRSPIYSHFSETVTGASVIRAYNRSRDFEIISDTKVDANQRSCYPYIISNRWLSIGVEFVGNCVVLFAALFAVIGRSSLNPGLVGLSVSYSLQVTFALNWMIRMMSDLESNIVAVERVKEYSKTETEAPWVVEGSRPPEGWPPRGEVEFRNYSVRYRPGLDLVLRDLSLHVHGGEKVGIVGRTGAGKSSMTLCLFRILEAAKGEIRIDGLNVADIGLHDLRSQLTIIPQDPILFSGTLRMNLDPFGSYSEEDIWWALELSHLHTFVSSQPAGLDFQCSEGGENLSVGQRQLVCLARALLRKSRILVLDEATAAIDLETDNLIQATIRTQFDTCTVLTIAHRLNTIMDYTRVLVLDKGVVAEFDSPANLIAARGIFYGMARDAGLA
Km [1]: 2500 µM | Vmax [1]: 0.0006 µmol/min

B2: ATP-binding cassette sub-family C member 4 (Homo sapiens) (protein)
chain: MLPVYQEVKPNPLQDANLCSRVFFWWLNPLFKIGHKRRLEEDDMYSVLPEDRSQHLGEELQGFWDKEVLRAENDAQKPSLTRAIIKCYWKSYLVLGIFTLIEESAKVIQPIFLGKIINYFENYDPMDSVALNTAYAYATVLTFCTLILAILHHLYFYHVQCAGMRLRVAMCHMIYRKALRLSNMAMGKTTTGQIVNLLSNDVNKFDQVTVFLHFLWAGPLQAIAVTALLWMEIGISCLAGMAVLIILLPLQSCFGKLFSSLRSKTATFTDARIRTMNEVITGIRIIKMYAWEKSFSNLITNLRKKEISKILRSSCLRGMNLASFFSASKIIVFVTFTTYVLLGSVITASRVFVAVTLYGAVRLTVTLFFPSAIERVSEAIVSIRRIQTFLLLDEISQRNRQLPSDGKKMVHVQDFTAFWDKASETPTLQGLSFTVRPGELLAVVGPVGAGKSSLLSAVLGELAPSHGLVSVHGRIAYVSQQPWVFSGTLRSNILFGKKYEKERYEKVIKACALKKDLQLLEDGDLTVIGDRGTTLSGGQKARVNLARAVYQDADIYLLDDPLSAVDAEVSRHLFELCICQILHEKITILVTHQLQYLKAASQILILKDGKMVQKGTYTEFLKSGIDFGSLLKKDNEESEQPPVPGTPTLRNRTFSESSVWSQQSSRPSLKDGALESQDTENVPVTLSEENRSEGKVGFQAYKNYFRAGAHWIVFIFLILLNTAAQVAYVLQDWWLSYWANKQSMLNVTVNGGGNVTEKLDLNWYLGIYSGLTVATVLFGIARSLLVFYVLVNSSQTLHNKMFESILKAPVLFFDRNPIGRILNRFSKDIGHLDDLLPLTFLDFIQTLLQVVGVVSVAVAVIPWIAIPLVPLGIIFIFLRRYFLETSRDVKRLESTTRSPVFSHLSSSLQGLWTIRAYKAEERCQELFDAHQDLHSEAWFLFLTTSRWFAVRLDAICAMFVIIVAFGSLILAKTLDAGQVGLALSYALTLMGMFQWCVRQSAEVENMMISVERVIEYTDLEKEAPWEYQKRPPPAWPHEGVIIFDNVNFMYSPGGPLVLKHLTALIKSQEKVGIVGRTGAGKSSLISALFRLSEPEGKIWIDKILTTEIGLHDLRKKMSIIPQEPVLFTGTMRKNLDPFNEHTDEELWNALQEVQLKETIEDLPGKMDTELAESGSNFSVGQRQLVCLARAILRKNQILIIDEATANVDPRTDELIQKKIREKFAHCTVLTIAHRLNTIIDSDKIMVLDSGRLKEYDEPYVLLQNKESLFYKMVQQLGKAEAAALTETAKQVYFKRNYPHIGHTDHMVTNTSNGQPSTLTIFETAL
Km [2]: 18 µM | Km [3]: 81 µM | Km [4]: 250 µM | Vmax [4]: 0.0012 µmol/min

B3: Multidrug resistance-associated protein 1 (Homo sapiens) (protein)
chain: MALRGFCSADGSDPLWDWNVTWNTSNPDFTKCFQNTVLVWVPCFYLWACFPFYFLYLSRHDRGYIQMTPLNKTKTALGFLLWIVCWADLFYSFWERSRGIFLAPVFLVSPTLLGITMLLATFLIQLERRKGVQSSGIMLTFWLVALVCALAILRSKIMTALKEDAQVDLFRDITFYVYFSLLLIQLVLSCFSDRSPLFSETIHDPNPCPESSASFLSRITFWWITGLIVRGYRQPLEGSDLWSLNKEDTSEQVVPVLVKNWKKECAKTRKQPVKVVYSSKDPAQPKESSKVDANEEVEALIVKSPQKEWNPSLFKVLYKTFGPYFLMSFFFKAIHDLMMFSGPQILKLLIKFVNDTKAPDWQGYFYTVLLFVTACLQTLVLHQYFHICFVSGMRIKTAVIGAVYRKALVITNSARKSSTVGEIVNLMSVDAQRFMDLATYINMIWSAPLQVILALYLLWLNLGPSVLAGVAVMVLMVPVNAVMAMKTKTYQVAHMKSKDNRIKLMNEILNGIKVLKLYAWELAFKDKVLAIRQEELKVLKKSAYLSAVGTFTWVCTPFLVALCTFAVYVTIDENNILDAQTAFVSLALFNILRFPLNILPMVISSIVQASVSLKRLRIFLSHEELEPDSIERRPVKDGGGTNSITVRNATFTWARSDPPTLNGITFSIPEGALVAVVGQVGCGKSSLLSALLAEMDKVEGHVAIKGSVAYVPQQAWIQNDSLRENILFGCQLEEPYYRSVIQACALLPDLEILPSGDRTEIGEKGVNLSGGQKQRVSLARAVYSNADIYLFDDPLSAVDAHVGKHIFENVIGPKGMLKNKTRILVTHSMSYLPQVDVIIVMSGGKISEMGSYQELLARDGAFAEFLRTYASTEQEQDAEENGVTGVSGPGKEAKQMENGMLVTDSAGKQLQRQLSSSSSYSGDISRHHNSTAELQKAEAKKEETWKLMEADKAQTGQVKLSVYWDYMKAIGLFISFLSIFLFMCNHVSALASNYWLSLWTDDPIVNGTQEHTKVRLSVYGALGISQGIAVFGYSMAVSIGGILASRCLHVDLLHSILRSPMSFFERTPSGNLVNRFSKELDTVDSMIPEVIKMFMGSLFNVIGACIVILLATPIAAIIIPPLGLIYFFVQRFYVASSRQLKRLESVSRSPVYSHFNETLLGVSVIRAFEEQERFIHQSDLKVDENQKAYYPSIVANRWLAVRLECVGNCIVLFAALFAVISRHSLSAGLVGLSVSYSLQVTTYLNWLVRMSSEMETNIVAVERLKEYSETEKEAPWQIQETAPPSSWPQVGRVEFRNYCLRYREDLDFVLRHINVTINGGEKVGIVGRTGAGKSSLTLGLFRINESAEGEIIIDGINIAKIGLHDLRFKITIIPQDPVLFSGSLRMNLDPFSQYSDEEVWTSLELAHLKDFVSALPDKLDHECAEGGENLSVGQRQLVCLARALLRKTKILVLDEATAAVDLETDDLIQSTIRTQFEDCTVLTIAHRLNTIMDYTRVIVLDKGEIQEYGAPSDLLQQRGLFYSMAKDAGLV
Km [5]: 3900 µM | Vmax [5]: 0.0124 µmol/min
